Experimental findings from the PETadex activity labels are described below.

Substrate in the data set: BHET
As to conditions: 120 h.

B1: unnamed (protein)
chain: MRKISFKASLFSTLTLLASSITYAGGGGGNGGNNNGGLPAPDTCEVNCGYNQGSNPSLNSLQSTRGNFSVATSNVPRSVPGFGGGTIYYPRNTSGELATIAIAPGFTAPQDAISWWGPVLASNGFVVITIDTNSRLDQPISRGRQLDSALSYLISQGNSSNSPISGMVDENRLASMGHSMGGGGALRSASRNRLSAAIPLAPFNVGGNSFNDIEVPTMIMACENDGTAPVNIHASPFYNRIPSSTDKALIELDNGNHSCANGGSGRNNAVLATYGVSWMKRFLDKDQRFIPFLCGPNHEANRGISDYRD
As to B1, the plate clearing result was “not clears the plate”.

B2: unnamed (protein)
chain: MNSRRASRLARAALAAGALLLSAAALATSNPYQRGPDPTAASLEASRGPFAVSSFTVSRPSGFGAGTVYYPTNAGGTVGAIAVVPGFTARQSSINWWGPRLASHGFVVITIDTNSTSDQPASRATQLMAALRQVVTLSGTSSSPIYNKVDTSRLGVMGWSMGGGGTLIAARNNPTLKAAVPLAPWNSSTNFSSVTVPTLIIACENDTVAPVSSHASPFYNSMTRTEKAYLEINGGSHSCANSGNSNQALLGKYGVAWMKRFMDNDTRYSSFLCGAPHSADLSSKSAISEYRENCPY
As for B2, the plate clearing result is given as “clears the plate (z > 3 vs empty vector)”.

B3: unnamed (protein)
chain: MAKDRAGDVAAAKLNKSHLRGSPMEITQRGARILGTKCAASLGLLLLAATAAHAQSNPYAKGPDPTSSSLNASAGPFSVATSSVSSLAAVGFGSGTVYYPTTAGSYAAIAISPGFTATESSIAWLGRRVATHGFVVITINTNSTLDQPPSRATQLMAALRYLTNSSSSTVRSRIDTTRLGLAGHSMGGGGTLIAARDNPSLKAAVPLTAWSVTKSFSTMRVPTLVVGAENDSIASVSSHSIPFYNSLPSSLSKAYAELNGASHFAPNTTNTPIGRYTVAWVKRFMDNDTRYSPFLCGSPHDSYATGLVFSDYRDNCPY
With B3, the plate clearing entry is “not clears the plate”.

B4: unnamed (protein)
chain: MFGKFPFARAGLAVGALLLSAAAVAQTNPYQRGPDPTVASLEATRGSFATSSFTVSRPSGYGAGTVYYPTNAGGKVGAIAVVPGFTARQSSINWWGARLASHGFVVITIDTNSTLDQPSSRSSQQMAALRQVVTLAGTTSSPIYNKVDTARLGVMGWSMGGGGSLISAKNNPTLRAAAPQAPWAQESFSTVTVPTLIISCESDTIAPNNTHSFPFYNQMTRNKKANLVINGGSHSCANSGNADAGLIGKYGVAWMKRFMDDDTRFSKFLCGAEHTADLSKRAIEAYKENCPY
On to B4, for which the plate clearing entry was “not clears the plate”.

B5: unnamed (protein)
chain: MEISKKKCLIGLGLMAMAMGVQAQTNPLAKGPDPTNASIQANGPFAVTTVTISNANANGYGGATVYVPTAAGTYALVAFSPGFTARQDTIAVIGRRLATHGFVVATIDTNSTLDLPDSRGTQLLAALRSVAALNAGNTAAAGKIDTTRLVVTGHSMGGGGTLFASRTNTAIKAGVPIAPFSSGVKNFATPVPQFILGGEVDNVAPVDEHSIPFFNGLPNATPKVYAELNGEDHFFVSESTPNQPASKFQIAWIKRFADNDARYTQFVNSAGVAVERNNGRLSDGRLESF
For the protein B5, the plate clearing entry is listed as “not clears the plate”.

B6: unnamed (protein)
chain: MRSAKTSVLAAVALGAAALLALGACGGSNNPYIRGDDPTEESLSRPGPYAVKSLTEGDRNGPGYGGGTIYYPTDAEPPFAAVAIVPGFTSPQSSIASWGPFLASHGIVAMTIDTNSTFDQPDTRAAALLDALESIKGENTRAGSPLKGKLDTNRLGVMGWSMGGGGTLIAAKDNPELKAAISLCPWNPGSSYSNTKVPTLMIASQADPLAGVSGHSQPFYDSIPDSTPKMLFEVAGGDHFVANNPANGNGQVGRYGLSWLKRFLEGDERYRPFLLEKPPGASDYRTNVY
As for B6, the plate clearing entry is recorded as “not clears the plate”.

B7: unnamed (protein)
chain: MDPSLKRALGLVVALTAAMLFSASASAQNPPPDDDPEPCQTDCDDGGNGGYTRGPDPTDSYLEASSGPYNVATSNVSSFVSGFGGGTIHYPTNTSGSMGGIVVIPGYVSYESSIEWWGPRLASHGFVVMTIDTNSIYDQPGSRKDQIDAALDYLVGQSNASSSAISGMVDGDRLAAVGWSMGGGGTLQLAAEPGRLKAAMPLAPWNSSFNDFDQIQTPTLIFACESDAVAPVSSHASPFYNDIPDATDKAFFEMNNGSHTCANGGNAYDELLGKYGVSWMKLHLDEDQRYEQFLCGPNHESEYQVS
For B7, the plate clearing result is listed as “not clears the plate”.

B8: unnamed (protein)
chain: MIEIRSSYKSKKTNCKRSVMPSMITKKAALPFVISSALLFSASAFAITPPSDPDPDPTPCEGDCDFTRGPDPTESMLEARSGPFNVDTVNVSSRVSGFGGGTIHYPTNTSGQMGAIVVAPGFVSPESSIGWWGPQLASHGFIVMTIATNSLYDQPDSRRDQLEAGLDYLISQSNSSGSDISGMVDSSRLGAMGWSMGGGGALQLAADGRLSAAIPLAPYNSSRNDFDDITTPTLIFACENDAVAAVRSHASPFYNDIPGSTDKAFVEINGGAHSCANGGNTNNSLLSKYGVSWMKLHLDQDQRYSQFLCGPNHESDRSISEYRGTCPY
As for B8, the plate clearing entry is “not clears the plate”.

B9: unnamed (protein)
chain: MPTPNTRPTPFGRLLQVTLAVSALALSLGAQAQQTGADPTTAILEAPAGPLAVSNVKVATPSGFGSGTVYYPTTGKGPYGLVSVTPGFVEGEWAINWLGPLLASHGFVVVTIGTTTILDAPTSRAKQMMAALKQVTALSATKTSPFAGKVDPSRLAVMGHSMGGGGSLDAARDNPNLKAAIPLAPWETTKDYSKITVPTLIVSCDSDVIAPVADHANKFYDSLTPTLTKALVEMKGAGHFCTNGTAIPATRTLVGKYSISWLKRFVDGDTRYSPFLCGAPHQADLAGSLISTYKGNCPY
B9: the plate clearing entry was “not clears the plate”.

B10: unnamed (protein)
chain: MERKNSRRSWAIGLGLLVLAATSAHAQTNPYQKGPDPTSASLNATSGSFSVATSSVSSAVSGFGGGTIYYPTTTGTYAVLAISPGFTATQSSIAWLGRRIATHGFVVITIDTNSTLDQPPSRATQLMAALNYVTNSSSATVRAKVDASRRGVAGHSMGGGGTLYAARDNPSLKAAVPLTAWSTLKSFSSVQVPTLVVGAESDSIAPVSSHSIPFYNSLSGSLDKAYAELNGASHLAPNSTNTPIGRYSVAWVKRFMDNDTRYTPFLCGTPHT
In the case of B10, the plate clearing entry is recorded as “not clears the plate”.

B11: unnamed (protein)
chain: MIMKNIDRRLRHCAVGLGLLLLAAVAQAQTNPLAKGPDPTSDLLNATAGPFAVATTSVSSSVSGFGGGTVYYPTASGSYATVAVCPGFTATQSSIAWIGRRMASHGFVVMTINTNSTLDQPPSRATQLMAALRYLTNSSNSTVRARVDANRLGVAGHSMGGGGTLMAARDNPTLKAAVPMTPWSQTKSFSTVRVPTLIVGAENDSVAPVASHSIPFYTSLSGSLDKAYAELNNASHFAPNSTNTPIGRYSVAWVKRFMDNDTRY
B11: the plate clearing result is “not clears the plate”.

B12: unnamed (protein)
chain: MRACCAFNSTIPGDTMSLQLTKHFGLAALACAALMSLGAAAHAQSYQKGPNPTASALERAGPFATRTTDVSRYSVTNFGGGTIYYPTAAGQYGAIAVSPGYTASKSTVTFWGERLSSHGFVVIVIDTLTTLDQPASRARQLKAALDKVVSLSRSSSSPIYNKVDPNRLAVMGHSMGGGGTLQAAKDNPGLKAAIPMAPWNTVTNWSAVTVPTLVMACQADAIAPVANHAVPFYNSMSANKKSYIEMAGDDHLCVMNGGGHDATLGKMGIAWMKRFVDNDTRYSPFLCGLPYQATVNTSEVSVHRNNCPY
B12: the plate clearing entry was “clears the plate (z > 3 vs empty vector)”.

B13: unnamed (protein)
chain: MKFQRFLQATVLAGATLLSFGAAAIEIGPAPTKASLEASRGPFSVGQFTVSRPSGYGAGTVYYPTNAGAKVGAIAIVPGFVSYQSSIAWWGPRLASHGFVVITIDTNTTVDQPDSRSRQQLAALDQVIALSKTSSSPIYNKVDENRTGVMGWSMGGGGSLISAKNRPSIKAAAPQAPWNSSTNFSSVTVPTLIFACQSDIVAPVAQHASPFYNSITRAPKQYLEKTLGDHFCFNSANATVGLKGVAWMKRFIDGDTRYTSFACSNPNALGFSDFRTARCS
Consider B13, for which the plate clearing entry is on record as “not clears the plate”.

B14: unnamed (protein)
chain: MKTSRTRTATTTLTRLARLALAAAALLLSAAAQAQSSNPYQRGPDPTAASLEASAGPFAVSTTTVSSASGFGGGTIYYPTNTEGPFAAIAVVPGFTATQSSISWWGPRLASHGFVVITIDTNSTFDQPASRATQLMAALNYVVSLSNTSSSPIYGKVDSNRLGVMGHSMGGGGTLIAARDNPTLKAAIPLAPWNSSTNFSSVTVPTLIIACENDTVAPVSSHASPFYNSIPSSTDKAYLEINGGDHFCANSGNSNKAILGKYGVAWMKRFLDNDTRYSPFLCGAPHQADLSGSAISEYRDNCPY
For the protein B14, the plate clearing entry is recorded as “clears the plate (z > 3 vs empty vector)”.

B15: unnamed (protein)
chain: MQHSPSTSRTRQRVTGILASLAVAVGVGIAAGPAAQGADNPHERGPDPTESSIEASRGSYSISERNVSSLVSGFGGGTIYYPTTTRDGDFGAVVISPGYTGTERTISWLGPRLASQGFVVLTMATNSIYDQPDSRARQLQAALDYLTDSSPVADRIDADRLALMGHSMGGGGTLRAVDDNPDIKAAIPMTPWHVKKNWSSVSTPTLIFGAENDSVARHETHAEPFYESFDRDLQKAYLELDGASHFAPNSSNTTIAKYSISWLKRFVDDDTRYTQFLCPGPSTGWFSDVEKYESSCPF
Take B15: the plate clearing result is given as “not clears the plate”.
